Experimental data reported in patent publication US20190350938A1 (BROAD INSTITUTE, published 2019).

T1: P2D SLC16A11^REF-V5 (human, UniProt Q8NCK7 1-447)
T1 construct: bait of the proteomics study; also called P2D WT SLC16A11; WT SLC16A11
T1 sequence: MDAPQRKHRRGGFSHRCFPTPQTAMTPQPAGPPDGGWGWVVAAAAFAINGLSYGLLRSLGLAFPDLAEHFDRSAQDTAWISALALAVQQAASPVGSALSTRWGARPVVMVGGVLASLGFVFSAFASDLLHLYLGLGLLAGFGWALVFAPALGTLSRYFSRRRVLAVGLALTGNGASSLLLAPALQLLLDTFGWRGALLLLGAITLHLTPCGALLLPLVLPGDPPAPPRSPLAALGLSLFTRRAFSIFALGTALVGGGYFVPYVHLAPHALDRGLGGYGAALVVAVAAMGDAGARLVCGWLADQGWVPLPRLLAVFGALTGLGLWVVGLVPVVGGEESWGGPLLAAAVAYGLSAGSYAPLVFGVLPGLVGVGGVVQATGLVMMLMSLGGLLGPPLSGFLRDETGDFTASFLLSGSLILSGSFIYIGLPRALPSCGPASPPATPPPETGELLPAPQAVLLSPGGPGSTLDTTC

B1: Basigin (other, human, UniProt P35613-2 22-269, looked up)
chain: AAGTVFTTVEDLGSKILLTCSLNDSATEVTGHRWLKGGVVLKEDALPGQKTEFKVDSDDQWGEYSCVFLPEPMGTANIQLHGPPRVKAVKSSEHINEGETAMLVCKSESVPPVTDWAWYKITDSEDKALMNGSESRFFVSSSQGRSELHIENLNMEADPGQYRCNGTSSKGSDQAIITLRVRSHLAALWPFLGIVAEVLVLVTIIFIYEKRRKPEDVLDDDDAGSAPLKSSGQHQNDKGKNVRQRNSS
modifications: glycosylated (runs as multiple bands)
notes: Endogenous protein co-precipitated from HEK293T lysate; also called BSG; endogenous BSG
B2: Embigin (protein, human, UniProt Q6PCB8 33-327, looked up)
chain: DGSAPDSPFTSPPLREEIMANNFSLESHNISLTEHSSMPVEKNITLERPSNVNLTCQFTTSGDLNAVNVTWKKDGEQLENNYLVSATGSTLYTQYRFTIINSKQMGSYSCFFREEKEQRGTFNFKVPELHGKNKPLISYVGDSTVLTCKCQNCFPLNWTWYSSNGSVKVPVGVQMNKYVINGTYANETKLKITQLLEEDGESYWCRALFQLGESEEHIELVVLSYLVPLKPFLVIVAEVILLVATILLCEKYTQKKKKHSDEGKEFEQIEQLKSDDSNGIENNVPRHRKNESLGQ
B3: SLC16A11^T2D-V5 (other, not shown: small tags and cut ends)
chain: MPAPQRKHRRGGFSHRCFPTPQTAMTPQPAGPPDGGWGWVVAAAAFAINGLSYGLLRSLGLAFPDLAEHFDRSAQDTAWISALALAVQQAASPVGSALSTRWGARPVVMVGGILASLGFVFSAFASGLLHLYLGLGLLAGFGWALVFAPALGTLSRYFSRRRVLAVGLALTGNGASSLLLAPALQLLLDTFGWRGALLLLGAITLHLTPCGALLLPLVLPGDPPAPPRSPLAALGLSLFTRRAFSIFALGTALVGGGYFVPYVHLAPHALDRGLGGYGAALVVAVAAMGDAGARLVCGWLADQGWVPLPRLLAVFGALTGLGLWVVGLVPVVGGEESWGSPLLAAAVAYGLSAGSYAPLVFGVLPGLVGVGGVVQATGLVMMLMSLGGLLGPPLSGFLRDETGDFTASFLLSGSLILSGSFIYIGLPRALPSCGPASPPATPTPETGELLPAPQAVLLSPGGPGSTLDTTCLPTFLYKVVGKPIPNPLLGLDST

molecular target: T1, P2D SLC16A11^REF-V5; experiment: anti-V5 IP of P2D SLC16A11REF-V5 from HEK293T lysate, iTRAQ quantitative MS; enrichment vs empty vector control IP

Row | BA log fold change (log fold change) | B.A. logFC [logFC] | BA log fold change [log fold change] | Molecule
1 | 1.09 | – | – | PSMA3 (from UniProt P25788 2-255)
2 | 1.26 | 1.26 | – | HSD17B12 (from UniProt Q53GQ0 1-312) (enzyme)
3 | 1.26 | 1.26 | – | BAG2 (from UniProt O95816 2-211)
4 | 1.38 | 1.38 | – | CANX (from UniProt P27824 56-627)
5 | 1.02 | – | – | PSMD11 (from UniProt O00231 1-423)
6 | 1.16 | – | – | AGPAT6 (from UniProt Q86UL3 38-456) (enzyme)
7 | 1.16 | – | – | KIAA0368 (from UniProt J3KN16 1-2017)
8 | 1.04 | – | – | TUBA1C (from UniProt F5H5D3 1-519)
9 | 1.01 | – | – | GCN1L1 (from UniProt Q92616 2-2671)
10 | 1.1 | – | – | AUP1 (from UniProt Q9Y679 1-410)
11 | 1.25 | 1.25 | – | Transmembrane protein 33 (from UniProt P57088 2-247)
12 | 1.22 | 1.22 | – | TIMM23B (from UniProt Q5SRD1 1-188)
13 | 1.33 | 1.33 | – | SURF4 (from UniProt O15260 2-269)
14 | 1.14 | – | – | XPO5 (from UniProt Q9HAV4 2-1204)
15 | 1.1 | – | – | TECR (from UniProt Q9NZ01 1-308) (enzyme)
16 | 1.05 | – | – | DNAJC7 (from UniProt Q99615 2-494)
17 | 1.59 | 1.59 | – | SEC61A2 (from UniProt Q9H9S3 1-476)
18 | 1.65 | 1.65 | – | SLC25A3 (from UniProt Q00325 50-361)
19 | 1.27 | – | – | STT3A (from UniProt P46977 1-705) (enzyme)
20 | 1.18 | – | – | PSMD12 (from UniProt O00232 2-456)
21 | 1.16 | – | – | PSMC3 (from UniProt P17980 1-439)
22 | 1.84 | 1.84 | – | SEC61A1 (from UniProt B4DR61 1-482)
23 | 1.16 | – | – | LPCAT1 (from UniProt Q8NF37 1-534) (enzyme)
24 | 1.23 | 1.23 | – | FAS-associated factor 2 (from UniProt Q96CS3 2-445)
25 | 1.69 | 1.69 | – | 7-dehydrocholesterol reductase (from UniProt Q9UBM7 1-475) (enzyme)
26 | 1.65 | 1.65 | – | DDOST (from UniProt P39656 43-456)

Row | BA log fold change (log fold change) | B.A. logFC [logFC] | BA log fold change [log fold change] | Molecule
27 | 1.09 | – | – | MAGED1 (from UniProt Q9Y5V3 1-834)
28 | 1.65 | 1.65 | – | EMC3 (from UniProt Q9P0I2 2-261)
29 | 1.08 | – | – | DNAJB4 (from UniProt Q9UDY4 2-337)
30 | 1.08 | – | – | BAG6 (from UniProt P46379 1-1162)
31 | 1.14 | – | – | VDAC2 (from UniProt P45880 1-309)
32 | 1.22 | – | – | DNAJC3 (from UniProt Q13217 32-504)
33 | 1.08 | – | – | QIL1 (from UniProt Q5XKP0 1-118)
34 | 1.05 | – | – | TUBA1B (from UniProt P68363 1-451)
35 | 1.11 | – | – | PHGDH (from UniProt O43175 2-533) (enzyme)
36 | 1.04 | – | – | BRAT1 (from UniProt Q6PJG6 1-821)
37 | 1.18 | – | – | PPP6R3 (from UniProt Q5H9R7 1-879)
38 | 0.98 | – | – | PSMD2 (from UniProt Q13200 1-908)
39 | 1.31 | 1.31 | – | PSMD14 (from UniProt O00487 1-310)
40 | 1.03 | – | – | HEATR2 (from UniProt Q86Y56 2-855)
41 | 1.26 | 1.26 | – | SACM1L (from UniProt Q9NTJ5 1-587) (enzyme)
42 | 1.02 | – | – | TUBA4A (from UniProt P68366 1-448)
43 | 1.18 | – | – | ATP1B3 (from UniProt P54709 1-279)
44 | 1.42 | 1.42 | – | E3 ubiquitin-protein ligase RNF5 (from UniProt Q99942 2-180) (enzyme)
45 | 1.2 | 1.2 | – | Proteasome subunit alpha type-1 (from UniProt P25786 1-269)
46 | 1.11 | – | – | ADCK4 (from UniProt Q96D53 1-544)
47 | 1.2 | – | – | SLC25A22 (from UniProt Q9H936 1-323)
48 | 1.08 | – | – | SCFD1 (from UniProt Q8WVM8 2-642)
49 | 1.21 | 1.21 | – | UBAC2 (from UniProt Q8NBM4 36-344)
50 | – | – | 1.43 | B1
51 | 1.55 | 1.55 | – | B2

molecular target: B1; experiment: cell-based or functional assay

Row | pyruvate influx and efflux rates (pyronic FRET assay, 293T cells) | Molecule
52 | ~0.5 fold of WT SLC16A11 | B3
